Data on 1 molecule can be found in US20220265772A1, “USES OF DAN FAMILY BMP ANTAGONISTS FOR INHIBITING OCULAR NEOVASCULARIZATION AND TREATING OCULAR CONDITIONS” (9636137 Canada Inc., priority 2019, published 2022).

Assay [1] concerns pathological retinal neovascularization. Put plainly: Oxygen-induced retinopathy (OIR). The assay is classed as in vivo, mouse. The procedure:
C57BL/6J mouse pups at postnatal day (P)7 and their fostering mothers (CD1, Charles River) were submitted to 75% oxygen in oxycycler chamber for 5 days. Pups were then returned to normoxia at P12 and administered 100 ng of recombinant human DAND5 intravitreally or similar volume of vehicle in the contralateral eye. Eyes were enucleated at P17 and processed for immunostaining. Ocular globes were initially fixed for 15 min in 4% paraformaldehyde (PFA). Retinas or choroids were collected after eyes dissection in PBS and blocked 1 h in PBS 3% BSA 0.1% Triton X-100TM. Fixation was prolonged in 1% PFA overnight for choroid extraction or eyes sectioning. Prior to sectioning, eyes were maintained in sucrose gradients (10-30%), cryo-preserved in a matrix gel and sliced in 14 μm sections on a cryostat (LeicaTM C[…]). Staining with either FITC-labeled isolectin GS 1B4 (Life technologies corporation), rhodamine phalloidin (Cedarlane Laboratories), phospho-histone H3 (Abcam), Collagen IV (Abcam) or cleaved caspase-3 (Cell Signaling) antibodies were performed on whole and/or sectioned retinas/choroids. Retinas and choroids were then mounted in fluoromount aqueous medium (Sigma-Aldrich). Quantitative analysis of tufts, vaso-obliterated or vessel areas were performed using imageJ/Swift_NVTM as previously described (1). Neovascular tuft formation was quantified by comparing the number of pixels in the affected areas with the total number of pixels in the retina. The avascular area in the retina was measured in the same way using an anti-DAND5/COCO polyclonal goat IgG antibody (AF3047, R&D systems). The effects of DAND5 on postnatal developmental angiogenesis led us to evaluate its effects on pathological angiogenesis by subjecting mouse pups to Oxygen-induced Retinopathy (OIR). Briefly, P7 pups were placed in 75% oxygen for 5 days, leading to vaso-obliteration of the retinal vascular plexus. At P12, pups were returned to room air, which stimulates retinal angiogenesis, and leads to the formation of a pathological vascular retinal network characterized by neovascular tufts (FIG. 5A).

In assay [2] the test system is choroidal neovascularization. In words: Laser-induced choroidal neovascularization (CNV). The assay is classed as in vivo, mouse. How it is done: Three-month-old C57BL/6J mice were anesthetised with a ketamine/xylazine mix prior to applying a photocoagulating laser (400 mW intensity, 0.05 s exposure time). Four spots were burned around the optical nerve. Mice received 100 ng of recombinant human DAND5 intravitreally or similar volume of vehicle in the contralateral eye. Eyes were enucleated after 14 days and processed for immunostaining.
Ocular globes were initially fixed for 15 min in 4% paraformaldehyde (PFA). Retinas or choroids were collected after eyes dissection in PBS and blocked 1 h in PBS 3% BSA 0.1% Triton X-100™. Fixation was prolonged in 1% PFA overnight for choroid extraction or eyes sectioning. […] Quantitative analysis of tufts, vaso-obliterated or vessel areas were performed using imageJ/Swift_NV™ as previously described (1). Neovascular tuft formation was quantified by comparing the number of pixels in the affected areas with the total number of pixels in the retina. The avascular area in the retina was measured in the same way using an anti-DAND5/COCO polyclonal goat IgG antibody (AF3047, R&D systems).
The effects of DAND5 on choroidal neovascularization (CNV) were also evaluated by subjecting mice to laser-induced CNV, a model which recapitulates the CNV occurring in wet AMD patients. […]

In assay [3] the test system is mitochondrial metabolism in HUVECs. In words: NAD+/NADH cycling, ATP, glucose and lactate assays in HUVECs. Format: cell-based, human. The procedure:
HUVECs plated into 100 mm dishes were treated with COCO for various time points. NAD+ and NADH were extracted using ice cold alkali (0.5M NaOH, 1 mM EDTA) and acidic buffers (0.1M HCl) respectively. Extracts were heated at 60° C. for 30 min and buffers were neutralized with either the NADH (100 mM Tris-HCl pH 8.1, 0.05M HCl) or NAD+(0.4M Tris) neutralization buffers. To attain measurable quantities of NAD+ or NADH, an amplifying cycling assay was performed. Extracts and NAD+ standards were incubated with cycling reagent (67 mM Tris-HCl pH 8, 200 mM EtOH, 1.3 mM beta-mercaptoethanol, 0.01% BSA, 2 mM oxaloacetic acid, 0.5 μg/mL malate dehydrogenase, 5 μg/mL alcohol dehydrogenase) for 1 hour at room temperature. All samples were heated for 5 min at 100 C to stop enzymatic reactions then cooled on ice. For detection, extracts were incubated in an indicator buffer (50 mM 2-amino-2-methyl-propanol pH 9.9, 200 μM NAD+, 10 mM glutamate, 0.04% BSA, 5 μg/mL malate dehydrogenase, 2 μg/mL glutamate oxaloacetate transaminase) for 10 min at room temperature. Then 100 μL if sample was transferred to a black 96-well plate. Fluorescence was detected using a plate reader (TECAN) at an excitation of 365 nm and emission of 460 nm. Standard curves were generated and the concentration of NAD+ and NADH were calculated from the standard curve (references: Kato T., et al. Analytical Biochemistry 53, 86-97 (1973); Lin S., et al, JBC. Vol 276, No. 38, 36000-36007 (2001)).
ATP detection: HUVECs were plated into 100 mm dishes and treated with COCO for various time points. ATP was measured by luminescence (ATP Detection Assay Kit; Cayman Chemicals). Metabolite measurements: HUVECs were cultured for up to 48 hours in the presence or absence of COCO. Culture media was collected at 1 h, 3 h, 6 h, 12 h, 24 h and 48 h, centrifuged at 12000 rpm for 5 min, aliquoted and stored at −80 C. Media was analyzed for glucose concentration using a BioProfiler 400 Analyzer (BioNova). For measurements of lactate, the culture media was analyzed using the Lactate Colorimetric/Fluorometric Assay Kit (BioVision, K607) as per the manufacturer's instructions.
We exposed or not HUVECs to recombinant DAND5 and measured the concentration of free radicals using DCFDA and MitoSoxRed™. […] To further test this, we measure the NAD+/NADH ratio in cells treated or not with DAND5. […] Likewise, glucose uptake was reduced and lactate levels were increased in DAND5-treated HUVECs after 1 h (FIG. 8E, lower panel).

B1: DAND5: human recombinant DAND5/COCO biologically active fragment produced in E. coli, predicted 18.2 kDa monomer, R&D systems 3047-CC-050 (protein)
chain: MRPEPQSPRPQSWAAANQTWALGPGALPPLVPASALGSWKAFLGLQKARQLGMGRLQRGQDEVAAVTLPLNPQEVIQGMCKAVPFVQVFSRPGCSAIRLRNHLCFGHCSSLYIPGSDPTPLVLCNSCMPARKRWAPVVLWCLTGSSASRRRVKISTMLIEGCHCSPKA
Turning to B1, in assay [1], the “effect on neovascularization compared with Flt1 Fc” value is given as “stronger effect on neovascularization than Flt1 Fc”. Moreover, the pathological neovascularization result in assay [1] (100 ng intravitreal at P12, retinas at P17) is given as “significantly reduced pathological neovascularization”. For the same molecule, the “revascularization of the central part of the retina” value in assay [1] (injection at P12, P17) was “not affected”. Further, the “amount and size of neovascular tufts” value in assay [1] (injection at P12, P17, compared to PBS) is “significantly reduced”. Also, the “inhibitory effect on retinal and choroidal neovascularization compared with Flt1Fc” value in assay [2] (OIR and laser-induced CNV together) is “significantly better than VEGF inhibition with Flt1Fc”. In assay [2] (laser impact, intravitreal delivery, 14 days, compared with controls), the “area of CNV” value is on record as “significant decrease in the area of CNV”. The “NAD+/NADH ratio” value in assay [3] (HUVECs exposed to DAND5) is recorded as “decreased”. In assay [3] (HUVECs, after 1 h), the glucose uptake entry was “reduced” and the lactate levels entry is “increased”. In addition, the ATP levels entry in assay [3] (HUVECs, after 1 h of treatment) is listed as “reduced”. In addition, in assay [3] (HUVECs, at 1, 6 and 24 hours), the ATP levels result is reported as “reduced”.
